Source: the Immune Epitope Database (IEDB)

Assays:
Settings in all cases: source organism: Cryptosporidium parvum Iowa II
[1] = biological target: HLA-A*02:01; assay: IEDB peptide-MHC binding, purified MHC/direct/fluorescence; filed as Kd, often an IC50 or EC50 that approximates it; ≥ and ≤ were set here for values at or beyond the usual limits of such assays
[2] = biological target: HLA-A*02:03; assay: as above
[3] = biological target: HLA-A*02:12; assay: as above
[4] = biological target: HLA-A*02:16; assay: as above
[5] = biological target: HLA-A*02:19; assay: as above
[6] = biological target: HLA-A*03:01; assay: as above
[7] = biological target: HLA-A*23:01; assay: as above
[8] = biological target: HLA-A*24:03; assay: as above
[9] = biological target: HLA-A*26:01; assay: as above
[10] = biological target: HLA-A*29:02; assay: as above
[11] = biological target: HLA-A*68:02; assay: as above
[12] = biological target: HLA-B*15:01; assay: as above
[13] = biological target: HLA-B*15:17; assay: as above
[14] = biological target: HLA-B*18:01; assay: as above
[15] = biological target: HLA-B*27:03; assay: as above
[16] = biological target: HLA-B*39:01; assay: as above
[17] = biological target: HLA-B*46:01; assay: as above
[18] = biological target: HLA-B*57:01; assay: as above
[19] = biological target: HLA-A*11:01; assay: IEDB peptide-MHC binding, purified MHC/competitive/fluorescence; filed as Kd, often an IC50 or EC50 that approximates it; ≥ and ≤ were set here for values at or beyond the usual limits of such assays
[20] = biological target: HLA-A*30:01; assay: as above
[21] = biological target: HLA-A*66:01; assay: as above
[22] = biological target: HLA-B*14:02; assay: as above
[23] = biological target: HLA-B*40:01; assay: as above
[24] = biological target: HLA-B*51:01; assay: as above
[25] = biological target: HLA-B*53:01; assay: as above

Measured: Kd

TVFRNQNRV
≥ 20 µM: [1] | [2] | [3] | [4] | [5] | [6] | [7] | [8] | [9] | [10] | [12] | [13] | [14] | [15] | [16] | [17] | [18]
≤ 0.001 µM: [11]
≥ 5 µM: [19] | [20] | [21] | [22] | [23] | [24] | [25]
